Laboratory results published in article PMC5963871, “Regulation and function of H3K36 di-methylation by the trithorax-group protein complex AMC” (Development (Cambridge, England), 2018).

T1: Drosophila Ash1_(XL-SET) (Ash1_(1275-1522)) (Drosophila, UniProt Q9VW15 1275-1522)
T1 sequence (looked up): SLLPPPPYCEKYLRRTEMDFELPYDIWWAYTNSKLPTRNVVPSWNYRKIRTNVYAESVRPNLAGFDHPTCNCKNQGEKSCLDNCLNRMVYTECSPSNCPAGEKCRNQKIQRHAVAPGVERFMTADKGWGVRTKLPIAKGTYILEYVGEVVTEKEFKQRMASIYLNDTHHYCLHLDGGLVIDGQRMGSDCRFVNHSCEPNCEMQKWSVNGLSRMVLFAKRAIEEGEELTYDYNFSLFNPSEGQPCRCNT


How the values were obtained:
[1] = target: T1, Drosophila Ash1_(XL-SET) …; assay: cell-based or functional assay
[2] = target: human ASH1L_(XL-SET) (ASH1L_(2035-2288)) (human, UniProt Q9NR48 2035-2288); assay: cell-based or functional assay

HMTase activity on recombinant oligonucleosome arrays (methyl-3H incorporation into histone H3, fluorography): Ash1_(XL-SET):MRG15 complex compared with Ash1_(XL-SET) alone [1]	HMTase activity on recombinant oligonucleosome arrays (methyl-3H incorporation into histone H3, fluorography): ASH1L_(XL-SET):MRG15MRG complex compared with ASH1L_(XL-SET) alone [2]	Binder
~30 fold	–	Drosophila full-length MRG15 (E. coli) (natural protein, UniProt Q9Y0I1 1-424, looked up) MGEVKPAKVENYSTGTDANTLFVDGERVLCFHGPLIYEAKVLKTKPDATPVEYYIHYAGWSKNWDEWVPENRVLKYNDDNVKRRQELARQCGERSKKDNKKGSAKAKKMEQMRNESRASTPSKDSNTSQSTASSTPTTSAGPGSKSEAGSTGTTTTNSTANSTTSRAHRKSTQSTPSTARPGTPSDKKEDPAAAETTEEEGPVAPKKKRMSEQRPSLTGSDVAEKPLPPTTTPSTPTTEPAPCVESEEAYAAKVEVKIKIPDELKHYLTDDWYAVVREHKLLELPAKVTVQQISEQYLAHKKSVKSTSASKEVAINDVLDGIVEYFNVMLGSQLLYKFERTQYADVMQKHPDTPLSELYGSFHLLRLFVRLGSMLSYSALDQQSMQNLLTHVQDFLKFLVKNSSIFFSMSNFINVDPEYVRNAQ
–	~7 fold	MRG domain of human MRG15 (MRG15_(151-362), MRG15MRG) (domain or fragment) KNKQKTPGNGDGGSTSETPQPPRKKRARVDPTVENEETFMNRVEVKVKIPEELKPWLVDDWDLITRQKQLFYLPAKKNVDSILEDYANYKKSRGNTDNKEYAVNEVVAGIKEYFNVMLGTQLLYKFERPQYAEILADHPDAPMSQVYGAPHLLRLFVRIGAMLAYTPLDEKSLALLLNYLHDFLKYLAKNSATLFSASDYEVAPPEYHRKAV
